{
  "source": "paper PMC3765442",
  "about": "(PLoS ONE, 2013)",
  "proteins": {"B1": {"name": "EB3c-GFP (C-terminal domain of human EB3, Ala200-Tyr281, C-terminally EGFP-His-tagged) (domain or fragment, UniProt Q9UPY8 200-281, looked up)", "chain": "AQILELNQQLVDLKLTVDGLEKERDFYFSKLRDIELICQEHESENSPVISGIIGILYATEEGFAPPEDDEIEEHQQEDQDEY", "notes": "Calculated monomer mass 38.7 kDa; also called C-terminal domain of EB3; not shown: EGFP, C-terminal, kept"}, "B2": {"name": "EB1c-GFP (C-terminal domain of human EB1, Asp191-Tyr268, C-terminally EGFP-His-tagged) (domain or fragment, UniProt Q15691 191-268, looked up)", "chain": "DEAAELMQQVNVLKLTVEDLEKERDFYFGKLRNIELICQENEGENDPVLQRIVDILYATDEGFVIPDEGGPQEEQEEY", "notes": "Calculated monomer mass 38.3 kDa; also called C-terminal domain of EB1; not shown: EGFP, C-terminal, kept"}, "B3": {"name": "EB1c-GFP[A206K] (domain or fragment, human, UniProt Q15691 191-268, looked up)", "chain": "B2 chain", "notes": "As m3, but Ala206 of the EGFP tag is mutated to lysine; the EB1c part is unchanged; not shown: EGFP with A206K, C-terminal, kept"}},
  "key": {"[1]": {"molecular_target": "the molecule itself", "assay": "SEC-MALS; Superdex 200 10/30 with in-line multi-angle light scattering; 1 to 4 mg/ml injected in 100 µl (about 1 µM at the peak); 20 mM Tris-HCl pH 7.5, 300 mM NaCl, 2 mM DTT; room temperature; single experiments"}, "[2]": {"molecular_target": "the molecule itself", "assay": "AUC; fluorescence sedimentation velocity (GFP signal at 488 nm), 22°C; dilution series from about 500 to about 0.5 nM (monomer equivalents); 20 mM Tris-HCl pH 7.5, 300 mM NaCl, 0.2 mg/ml BSA, 2 mM DTT or 0.1 mM TCEP; samples incubated 16 hours at 22°C; dimer to monomers; apparent Kd"}, "[3]": {"molecular_target": "the molecule itself", "assay": "AUC; absorption sedimentation equilibrium at 37°C; 1 to 60 µM (monomer equivalents); 14'000, 17'000 and 26'000 rpm; buffer as for velocity runs but without BSA; dimer to monomers"}},
  "data": [
    {"protein": "B1", "values": [
      {"measurement": "stoichiometry N", "setting": "[1]", "result": 2},
      {"measurement": "Kd", "setting": "[2]", "result": 2, "unit": "nM"}
    ]},
    {"protein": "B2", "values": [
      {"measurement": "stoichiometry N", "setting": "[3]", "result": 2}
    ]},
    {"protein": "B3", "values": [
      {"measurement": "stoichiometry N", "setting": "[2]", "result": 2}
    ]}
  ]
}
